The values below come from article PMC10281602.

The target in series [1] is T1, PbrARF13 (Pyrus bretschneideri? (pear …, UniProt UPI00202FA75D 49-757)).
T1 sequence: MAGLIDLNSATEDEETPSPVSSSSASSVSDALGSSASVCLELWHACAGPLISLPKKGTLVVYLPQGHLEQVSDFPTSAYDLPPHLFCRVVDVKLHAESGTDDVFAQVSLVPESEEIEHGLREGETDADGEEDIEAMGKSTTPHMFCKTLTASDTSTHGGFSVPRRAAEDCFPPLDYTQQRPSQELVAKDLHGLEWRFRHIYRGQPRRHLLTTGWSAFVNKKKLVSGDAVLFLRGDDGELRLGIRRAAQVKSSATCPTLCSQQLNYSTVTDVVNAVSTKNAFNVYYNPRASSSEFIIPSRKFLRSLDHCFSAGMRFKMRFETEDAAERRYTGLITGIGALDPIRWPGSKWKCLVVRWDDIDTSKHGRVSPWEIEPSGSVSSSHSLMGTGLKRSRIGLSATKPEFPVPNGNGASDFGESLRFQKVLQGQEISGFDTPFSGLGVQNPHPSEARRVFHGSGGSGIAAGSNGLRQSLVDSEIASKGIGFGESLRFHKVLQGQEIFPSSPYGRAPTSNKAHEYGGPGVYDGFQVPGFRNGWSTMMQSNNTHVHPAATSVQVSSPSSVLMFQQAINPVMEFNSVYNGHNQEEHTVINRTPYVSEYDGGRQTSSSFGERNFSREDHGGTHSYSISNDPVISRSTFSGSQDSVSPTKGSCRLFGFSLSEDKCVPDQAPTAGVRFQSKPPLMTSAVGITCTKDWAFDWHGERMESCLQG
As to the kind of experiment: EMSA. (In general: In EMSA bound probe runs differently from free probe, usually more slowly.)

Series [2] addresses T1, PbrARF13. As to the kind of experiment: competition.
Series [3] deals with T2, PbrNSC (Pyrus bretschneideri? (pear …, UniProt A0A5J6X514 1-400)).
T2 sequence: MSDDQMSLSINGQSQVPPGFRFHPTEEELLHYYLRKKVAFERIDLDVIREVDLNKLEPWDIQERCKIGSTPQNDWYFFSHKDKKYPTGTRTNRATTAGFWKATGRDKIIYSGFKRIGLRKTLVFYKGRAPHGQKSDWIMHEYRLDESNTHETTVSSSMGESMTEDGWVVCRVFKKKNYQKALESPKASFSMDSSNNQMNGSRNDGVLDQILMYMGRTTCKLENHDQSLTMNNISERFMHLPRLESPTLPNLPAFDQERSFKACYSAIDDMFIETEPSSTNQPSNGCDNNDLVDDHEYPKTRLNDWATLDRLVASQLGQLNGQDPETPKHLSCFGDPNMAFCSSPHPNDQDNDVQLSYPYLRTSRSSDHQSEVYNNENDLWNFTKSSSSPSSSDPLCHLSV
As to the kind of experiment: EMSA.

B1: AuxRE-2 probe (dsDNA)
DNA 1: ATCATCTCTGTCTCTCTCTTGC
DNA 2: GCAAGAGAGAGACAGAGATGAT
Regarding B1, the binding result in series [1] was “binds”.

B2: AuxRE-2 mutant probe (dsDNA)
DNA 1: ATCATCTCGAGAGATCTCTTGC
DNA 2: GCAAGAGATCTCTCGAGATGAT
As for B2, in series [1], the binding result was “no binding”.

B3: AuxRE-2 unlabelled competitor (dsDNA)
DNA 1: ATCATCTCTGTCTCTCTCTTGC
DNA 2: GCAAGAGAGAGACAGAGATGAT
For B3, the binding result in series [2] is “binds”.

B4: SNBE probe (dsDNA)
DNA 1: ATACTTGAAACCTAAGTAA
DNA 2: TTACTTAGGTTTCAAGTAT
For the molecule B4, in series [3], the binding result is “binds”.
